Here are results for three molecules from patent US20250012721A1, “FLUORESCENCE DETECTION KIT FOR ACTIVATED COMPLEMENT C1s, DETECTION METHOD USING SAME, AND USE THEREOF” (JIANGSU UNIVERSITY, priority 2022, published 2025).

For this test, the system named is activated C1s. Briefly: Cross reaction test of fluorescence detection method for activated C1s. The test is classed as biochemical. The conditions noted are these: for Measured concentration: interferent in PBS: double-stranded C1r 660 μg/mL, MASP1 and MASP2 5000 μg/mL; for Cross reaction rate (%): measured value/theoretical value×100%. The method, then:
• 1. Preparation of a buffer: 1) Binding Buffer: 0.1 M morpholinoethanesulfonic acid (MES, pH=5.0); • 2) Washing Buffer: TBS containing 0.05% Tween 20; • 3) Blocking Buffer: containing 0.05 M Tris, 1.0% BSA, and 0.05% Tween 20; • 4) Desired Buffer: Tris buffer containing 0.05% Tween 20 and BSA; and • 5) Tris Buffer: 0.05 M Tris, 0.15 M NaCl, and 0.2% (w/v) polyethylene glycol 8000. • 2. Preparation of immunomagnetic beads (C1s recombinant antibody-coupled magnetic beads) • (1) 10 mg of magnetic beads (Merck carboxyl magnetic beads, with a particle size of 1 μm) were washed 3 times with 1 mL of Binding Buffer, and vortexed to mix evenly. • (2) 20 μg of the C1s recombinant antibody obtained in Example 1 was added into every 1 mg of the magnetic beads, mixed well, and vortexed at a room temperature (25° C.) for 15 min. • (3) 50 μg of a coupling agent was added into every 1 mg of the magnetic beads, mixed well, and vortexed at a room temperature for 1 h. • (4) 1 mL of Binding Buffer was added and vortexed at a room temperature for 3 h. • (5) The magnetic beads were washed 4 times with 0.5 mL of Washing Buffer. • (6) The magnetic beads were resuspended with 1 mL of Desired Buffer to obtain C1s recombinant antibody-coupled magnetic beads with a concentration of 5 mg/mL, and stored at 4° C. until later use. • 3. Detection of the enzymatic activity of activated C1s • (1) 60 μL of the C1s recombinant antibody-coupled magnetic beads were stirred evenly, subjected to magnetic suction to remove a supernatant, added with 200 μL of PBS to mix well, subjected to the magnetic suction to remove a supernatant, and washed repeatedly 2 times. • (2) 10 μL of a sample to be tested or activated C1s standards with different concentrations were diluted to 100 μL with PBS, and mixed vertically with the C1s recombinant antibody-coupled magnetic beads at a room temperature for 10 min. The magnetic suction was performed to discard a supernatant. According to the enzymatic activity of the C1s standard determined in Example 4, the enzymatic activity conversion of the C1s standards with different concentrations is shown in Table 2.
• (3) The magnetic beads were repeatedly washed 3 times with 100 μL of PBS. • (4) The magnetic beads were resuspended with 90 μL of Tris buffer. • (5) 10 μL of substrate peptide 3 was added at a concentration of 1 μg/mL. • (6) The detection was performed with a microplate reader at 360/40 excitation light wave and 460/40 emission light wave, with a best reaction time of 1 h as a detection point, and the fluorescence signals were measured and recorded. The straight line fitting was performed by taking a C1s enzymatic activity as an abscissa and a fluorescence signal as an ordinate with a double logarithmic Log-Log mathematical model and using a least square method to plot a standard curve.
In this example, the specificity of the activated C1s was tested. The interfering antigenic substances (complement analogues) that might exist in serum were detected, such as double-stranded C1r, MASP1, and MASP2. The double-stranded C1r, MASP1, and MASP2 were separately diluted with PBS, and the diluted concentrations were 0.66 mg/mL, 5 mg/mL, and 5 mg/mL, successively. The complement analogues were detected based on the steps of Example 5. A cross reaction rate of various substances was calculated. Cross reaction rate=measured value/theoretical value×100%. […] The cross reaction rates were all less than 0.5%.

B1: MASP1: interfering antigenic substance (complement analogue), from Abnova (protein)
chain: HTVELNNMFGQIQSPGYPDSYPSDSEVTWNITVPDGFRIKLYFMHFNLESSYLCEYDYVKVETEDQVLATFCGRETTDTEQTPGQEVVLSPGSFMSITFRSDFSNEERFTGFDAHYMAVDVDECKEREDEELSCDHYCHNYIGGYYCSCRFGYILHTDNRTCRVECSDNLFTQRTGVITSPDFPNPYPKSSECLYTIELEEGFMVNLQFEDIFDIEDHPEVPCPYDYIKIKVGPKVLGPFCGEKAPEPISTQSHSVLILFHSDNSGENRGWRLSYRAAGNECPELQPPVHGKIEPSQAKYFFKDQVLVSCDTGYKVLKDNVEMDTFQIECLKDGTWSNKIPTCKIVDCRAPGELEHGLITFSTRNNLTTYKSEIKYSCQEPYYKMLNNNTGIYTCSAQGVWMNKVLGRSLPTCLPVCGLPKFSRKLMARIFNGRPAQKGTTPWIAMLSHLNGQPFCGGSLLGSSWIVTAAHCLHQSLDPEDPTLRDSDLLSPSDFKIILGKHWRLRSDENEQHLGVKHTTLHPQYDPNTFENDVALVELLESPVLNAFVMPICLPEGPQQEGAMVIVSGWGKQFLQRFPETLMEIEIPIVDHSTCQKAYAPLKKKVTRDMICAGEKEGGKDACAGDSGGPMVTLNRERGQWYLVGTVSWGDDCGKKDRYGVYSYIHHNKDWIQRVTGVRN
Consider B1, for which the Measured concentration was 1.82 pmol/min/µg and the “Cross reaction rate (%)” value is 0.04%. In addition, under “C1s equivalent in brackets”, the Measured concentration amounted to 2 µg/mL.

B2: Double-stranded C1r: interfering antigenic substance (complement analogue) that might exist in serum (protein)
chain: SIPIPQKLFGEVTSPLFPKPYPNNFETTTVITVPTGYRVKLVFQQFDLEPSEGCFYDYVKISADKKSLGRFCGQLGSPLGNPPGKKEFMSQGNKMLLTFHTDFSNEENGTIMFYKGFLAYYQAVDLDECASRSKSGEEDPQPQCQHLCHNYVGGYFCSCRPGYELQEDTHSCQAECSSELYTEASGYISSLEYPRSYPPDLRCNYSIRVERGLTLHLKFLEPFDIDDHQQVHCPYDQLQIYANGKNIGEFCGKQRPPDLDTSSNAVDLLFFTDESGDSRGWKLRYTTEIIKCPQPKTLDEFTIIQNLQPQYQFRDYFIATCKQGYQLIEGNQVLHSFTAVCQDDGTWHRAMPRCKIKDCGQPRNLPNGDFRYTTTMGVNTYKARIQYYCHEPYYKMQTRAGSRESEQGVYTCTAQGIWKNEQKGEKIPRCLPVCGKPVNPVEQRQRIIGGQKAKMGNFPWQVFTNIHGRGGGALLGDRWILTAAHTLYPKEHEAQSNASLDVFLGHTNVEELMKLGNHPIRRVSVHPDYRQDESYNFEGDIALLELENSVTLGPNLLPICLPDNDTFYDLGLMGYVSGFGVMEEKIAHDLRFVRLPVANPQACENWLRGKNRMDVFSQNMFCAGHPSLKQDACQGDSGGVFAVRDPNTDRWVATGIVSWGIGCSRGYGFYTKVLNYVDWIKKEMEEED
Take B2: the Measured concentration worked out at 0.91 pmol/min/µg and the “Cross reaction rate (%)” value was determined as 0.15%. Moreover, the Measured concentration (C1s equivalent in brackets) turned out to be 1 µg/mL. Moreover, the “Cross reaction rate (%)” value (listed as double-stranded C1r) amounted to 0.3%.

B3: MASP2: interfering antigenic substance (complement analogue), from Abnova (protein)
chain: TPLGPKWPEPVFGRLASPGFPGEYANDQERRWTLTAPPGYRLRLYFTHFDLELSHLCEYDFVKLSSGAKVLATLCGQESTDTERAPGKDTFYSLGSSLDITFRSDYSNEKPFTGFEAFYAAEDIDECQVAPGEAPTCDHHCHNHLGGFYCSCRAGYVLHRNKRTCSALCSGQVFTQRSGELSSPEYPRPYPKLSSCTYSISLEEGFSVILDFVESFDVETHPETLCPYDFLKIQTDREEHGPFCGKTLPHRIETKSNTVTITFVTDESGDHTGWKIHYTSTAQPCPYPMAPPNGHVSPVQAKYILKDSFSIFCETGYELLQGHLPLKSFTAVCQKDGSWDRPMPACSIVDCGPPDDLPSGRVEYITGPGVTTYKAVIQYSCEETFYTMKVNDGKYVCEADGFWTSSKGEKSLPVCEPVCGLSARTTGGRIYGGQKAKPGDFPWQVLILGGTTAAGALLYDNWVLTAAHAVYEQKHDASALDIRMGTLKRLSPHYTQAWSEAVFIHEGYTHDAGFDNDIALIKLNNKVVINSNITPICLPRKEAESFMRTDDIGTASGWGLTQRGFLARNLMYVDIPIVDHQKCTAAYEKPPYPRGSVTANMLCAGLESGGKDSCRGDSGGALVFLDSETERWFVGGIVSWGSMNCGEAGQYGVYTKVINYIPWIENIISDF
In the case of B3, the Measured concentration came out at 1.64 pmol/min/µg and the “Cross reaction rate (%)” value was 0.04%. For the setting “C1s equivalent in brackets”, the Measured concentration amounted to 1.8 µg/mL.
